In paper PMC2858024, “Identification and molecular characterization of a novel flavin-free NADPH preferred azoreductase encoded by azoB in Pigmentiphaga kullae K24” (BMC Biochemistry, 2010):

Legend:
Assay in all cases: purified protein
purified protein [1] = substrate: NC(=O)C1=CN([C@@H]2O[C@H](COP(=O)(O)OP(=O)(O)OC[C@H]3O[C@@H](n4cnc5c(N)ncnc54)[C@H](O)[C@@H]3O)[C@@H](O)[C@H]2O)C=CC1; conditions: apparent, Orange I 30 μM, potassium phosphate pH 6.8, room temperature (general assay)
purified protein [2] = substrate: NC(=O)C1=CN([C@@H]2O[C@H](COP(=O)(O)OP(=O)(O)OC[C@H]3O[C@@H](n4cnc5c(N)ncnc54)[C@H](OP(=O)(O)O)[C@@H]3O)[C@@H](O)[C@H]2O)C=CC1; conditions: apparent, Orange I 30 μM, potassium phosphate pH 6.8, room temperature (general assay)
purified protein [3] = substrate: O=S(=O)(O)c1ccc(N=Nc2ccc(O)c3ccccc23)cc1; conditions: apparent, co-substrate NADPH 1 mM, potassium phosphate pH 6.8, room temperature (general assay)

B1: AzoB (Pigmentiphaga kullae) (protein)
chain: MNIAIIGATGNVGSRLVNEALARGHHVTAIARHASRLAARPGLDTLDIDLADGAKLAGALRGKDAAISSVRFATSPLAAVLGPVRQAGLRRLLVVGGAGSLEVAPGAALVDTPTFPAEYKPEALAGRDWLNALRTEKDLDWTFLSPSALFVPGERTGTFRLGGDTLLTAADGRSWISMEDFAIAMLDEVEKPAHTGRRFTVGY
B1 gave a Km (purified protein [1]) of 170 µM, a Vmax (purified protein [1]) of 17 µmol/min/mg and a Km (purified protein [2]) of 1.0 µM. It also gave a Vmax (purified protein [2]) of 33 µmol/min/mg, a Km (purified protein [3]) of 3.0 µM and a Vmax (purified protein [3]) of 36 µmol/min/mg.
